Results from patent US20180244757A1.

What was measured:
[1] = molecular target: Heartland virus (HRTV) nucleocapsid (N) protein (Heartland virus (HRTV))
[2] = molecular target: SFTSV antigen (SFTSV-infected Vero cells); assay: IFA on acetone-fixed SFTSV-infected Vero cells, MAb in doubling dilutions
[3] = molecular target: Heartland virus (HRTV) nucleocapsid (N) protein (Heartland virus (HRTV)); assay: ELISA, purified HRTV coated on the plate, MAb titrated

Binder | ELISA endpoint [1] | IFA endpoint titer [2] | ELISA endpoint titer [3]
MAb 2AF11 (antibody, V domains shown) VH: QVTLKESGPGILQPSQTLSLTCSFSGFSLSTSGMSVGWIRQPSGKGLEWLAHIWWNDDMYYNPALESRLTISKDTSNNQVFLKIASVVTADTATYYCARIALTGPYWYFDVWGAGTTVTVSS VL: DIVMTQTPASLSASVGETVTITCRASENIYSYLAWYQQKQGKSPQLLVNNAKTLAEGVPSRFSGSGSGTQFSLKINSLQPEDCGNYYCQHHYGTPLTFGAGTKLELK | 10000 ng/mL | 1 µg/mL | 
MAb 2BB6 (antibody, V domains shown) VH: EVQLEESGPDLVKPSQSLSLTCTVTGFSITSGYSWHWIRQFPGNKLEWMGYIHFSGSTNYNPSLKSRISITRDTSKNQFFLQLSSVTTDDTGTYYCARDLTGIDSWGQGTTLTVSS VL: DIVMTQTPAIMSASPGEKVTISCSASSSVSYMYWFQQKPGSSPKPWIYRTSNLASGVPARFSGSGSGTSYSVTISSMEAEDAATYYCQQYHSYPLTFGAGTKLELK | 10000 ng/mL |  | 
MAb 2BB5 (antibody, V domains shown) VH: EVQLEESGGGLVQPGGSMKLSCVASGFTFSNYWMNWVRQSPEKGLEWVAEVRLNSNNYATHYAESVKGRFTISRDDSKSSVYLQMSNLRSEDTGIYYCSTDYYGYAMDYWGQGTSVTVSS VL: DIVMTQTPSIMSASPGEKVTITCSASSNVNYMHWFQQKPGTSPKLWIYSTSNLASGVPARFSGSGSGTSYSLTISRMEAEDAATYYCQQRSNYPPTFGAGTKLELK | 0.156 ng/mL |  | 0.156 ng/mL
MAb 2AG9 (antibody, V domains shown) VH: ELARPGASVKLSCKASGYTFTNYYMQWIKQRPGQGLEWIGAVYPGDGDTRYTQKFKGKASLTADKSSTTAYMQLSSLASEDSAVYYCTRGDYEGTWFTYWGQGTLVTVSA VL: DIVMTQTTAIMSASPGEKVTMTCSASSSVSYMHWYQQKSGTSPKRWMYDTSKLASGVPGRFSGSGSGTTYSLTISTMEAEDAATYYCQQWSSNPPTFGGGTKLEIK | 1.53 ng/mL |  | 1.53 ng/mL
MAb 2BB7 (antibody, V domains shown) VH: EVQLQQSGPDLVKPGASMKISCKASGYSFTAYTMNWVKQSHGKNLEWIGLISPYNGGTSYNQKFKGKATLTVDKSSSTAYMELLSLTSEDSAVYYCARQIGPYFDHWGQGTTLTVSS VL: IVMTQTTPSSMYASLGERVTITCKASQDIKSSFSWFQQKPGKSPKTLIYRASRLVDGVPSRFSGSGSGQDSSLTISSLEYEDMGIYYCLQCDEFPYTFGGGTKLEIK | 24.4 ng/mL |  | 24.4 ng/mL
MAb 2AG8 (antibody, V domains shown) VH: VKLEESGAELVRSGASLKMSCKASGYTFTSYNLHWVKQTPGQGLEWIGYIFPGNGGTAYNEKFKGKATLTADTSSSTAYMQISSLTSEDSAVYFCARGGPYYALDYWGQGTSVTVSS VL: DIVMTQSPASLSASVGETVTITCRTSGNIHTYLAWYQHKQGKSPQLLVYYAKTLADGVPSRFSGSGSGTQYSLKINSLQPEDFGSYYCQHFWSNPRTFGGGTKLEIKR | 0.381 ng/mL |  | 0.381 ng/mL
MAb 2BA2 (antibody, V domains shown) VH: VQLQESGPGLVKPSQPLSLTCSVTGYSITSAYYWNWIRQFPGNKLEWMGYITYDGTNNYNPSLKNRISITRDTSKNQFFLKLNSVTTEDTASYYCARDVATVGAMDYWGQGTSVTVSS VL: SIVMTQTPKFLLVSAGDRVTITCKASQSVSNDVAWYQQKPGQSPKLLIYFASNRYTGVPDRFTGSGYGTDFTFTISTVLAEDLALYFCQQDYSSPRTFGGGTKLEVK | 39.1 ng/mL |  | 39.1 ng/mL
MAb 2BB8 (antibody, V domains shown) VH: QAYLQQSGAELVRSGASLKMSCKASGYTFTSYNLHWVKQTPGQGLEWIGYIFPGNGGTAYNEKFKGKATLTADTSSSTAYMQISSLTSEDSAVYFCARGGPYYALDYWGQGTSVTVSS VL: DIQMTQSPASLSASVGETVTITCRTSGNIHTYLAWYQHKQGKSPQLLVYYAKTLADGVPSRFSGSGSGTQYSLKINSLQPEDFGSYYCQHFWSNPRTFGGGTKLEIK | 0.61 ng/mL |  | 0.61 ng/mL
